These results are taken from publication PMC11231340, “Werner helicase interacting protein 1 contributes to G-quadruplex processing in human cells”.

By Kd is commonly meant the constant that tells how readily two partners part at equilibrium.

Data set [1] deals with T1, GST-WRNIP1 (Homo sapiens, UniProt Q96S55 1-665).
T1 sequence: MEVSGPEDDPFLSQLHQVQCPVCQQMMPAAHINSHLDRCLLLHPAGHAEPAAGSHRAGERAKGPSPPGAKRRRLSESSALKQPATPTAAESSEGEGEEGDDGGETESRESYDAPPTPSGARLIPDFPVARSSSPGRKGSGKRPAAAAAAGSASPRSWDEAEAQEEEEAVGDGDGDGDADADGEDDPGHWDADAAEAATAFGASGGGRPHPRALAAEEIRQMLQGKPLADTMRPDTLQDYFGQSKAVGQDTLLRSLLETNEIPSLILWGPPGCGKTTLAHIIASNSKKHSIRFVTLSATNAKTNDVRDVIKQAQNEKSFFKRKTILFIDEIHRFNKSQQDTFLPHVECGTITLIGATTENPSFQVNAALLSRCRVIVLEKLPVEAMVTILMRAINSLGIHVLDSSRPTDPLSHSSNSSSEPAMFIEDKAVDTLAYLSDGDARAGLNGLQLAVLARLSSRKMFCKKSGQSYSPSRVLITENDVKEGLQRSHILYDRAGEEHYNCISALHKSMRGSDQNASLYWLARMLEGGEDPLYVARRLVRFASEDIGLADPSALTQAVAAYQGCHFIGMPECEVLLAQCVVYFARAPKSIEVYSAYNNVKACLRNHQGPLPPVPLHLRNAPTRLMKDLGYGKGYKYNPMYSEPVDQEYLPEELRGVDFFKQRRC
Briefly: fluorescence anisotropy; Hill n 0.96; Anisotropy: 10 nM DNA, 50 mM Tris-HCl pH 7.5, 90 mM KCl, 5 mM EDTA, with or without 1 mM ATP and 1.25 mM MgCl2, 25 C; EMSA: 50 nM DNA, 50 mM Tris-HCl pH 7.5, 150 mM KCl, 15 min 25 C, 6% native gel; DNA folded in 25 mM Tris-HCl pH 7.5, 50 mM KCl. The note with it: protein: recombinant; (GST fusion); label: 5' FITC.

The target in data set [2] is T1, GST-WRNIP1. Briefly: fluorescence anisotropy; 1 mM ATP; Hill n 0.66; Anisotropy: 10 nM DNA, 50 mM Tris-HCl pH 7.5, 90 mM KCl, 5 mM EDTA, with or without 1 mM ATP and 1.25 mM MgCl2, 25 C; EMSA: 50 nM DNA, 50 mM Tris-HCl pH 7.5, 150 mM KCl, 15 min 25 C, 6% native gel; DNA folded in 25 mM Tris-HCl pH 7.5, 50 mM KCl. The note with it: protein: recombinant; (GST fusion); label: 5' FITC; intramolecular G4 with 3' ssDNA tail of 21 nt. (In general: In fluorescence polarisation assays a small probe gives low polarisation when free and higher when bound to something large.)

Data set [3] addresses T1, GST-WRNIP1. Briefly: fluorescence anisotropy; no ATP (ATP comparison series); Hill n 0.72; Anisotropy: 10 nM DNA, 50 mM Tris-HCl pH 7.5, 90 mM KCl, 5 mM EDTA, with or without 1 mM ATP and 1.25 mM MgCl2, 25 C; EMSA: 50 nM DNA, 50 mM Tris-HCl pH 7.5, 150 mM KCl, 15 min 25 C, 6% native gel; DNA folded in 25 mM Tris-HCl pH 7.5, 50 mM KCl. To be noted: protein: recombinant; (GST fusion); label: 5' FITC; intramolecular G4 with 3' ssDNA tail of 21 nt.

Data set [4] has as its target T1, GST-WRNIP1. Briefly: fluorescence anisotropy; Hill n 0.55; Anisotropy: 10 nM DNA, 50 mM Tris-HCl pH 7.5, 90 mM KCl, 5 mM EDTA, with or without 1 mM ATP and 1.25 mM MgCl2, 25 C; EMSA: 50 nM DNA, 50 mM Tris-HCl pH 7.5, 150 mM KCl, 15 min 25 C, 6% native gel; DNA folded in 25 mM Tris-HCl pH 7.5, 50 mM KCl. The note with it: protein: recombinant; (GST fusion); label: 5' FITC; intramolecular G4 with 3' ssDNA tail of 21 nt.

In data set [5] the target is T1, GST-WRNIP1. The data set is described as follows: fluorescence anisotropy; Hill n 0.88; Anisotropy: 10 nM DNA, 50 mM Tris-HCl pH 7.5, 90 mM KCl, 5 mM EDTA, with or without 1 mM ATP and 1.25 mM MgCl2, 25 C; EMSA: 50 nM DNA, 50 mM Tris-HCl pH 7.5, 150 mM KCl, 15 min 25 C, 6% native gel; DNA folded in 25 mM Tris-HCl pH 7.5, 50 mM KCl. To be noted: protein: recombinant; (GST fusion); label: 5' FITC on strand 1; 21 bp duplex at 3' end of strand 1; 5' ss G4 overhang 21 nt; strand 2 5' TTT overhang.

Data set [6] concerns the target T1, GST-WRNIP1. Briefly: fluorescence anisotropy; Hill n 0.95; Anisotropy: 10 nM DNA, 50 mM Tris-HCl pH 7.5, 90 mM KCl, 5 mM EDTA, with or without 1 mM ATP and 1.25 mM MgCl2, 25 C; EMSA: 50 nM DNA, 50 mM Tris-HCl pH 7.5, 150 mM KCl, 15 min 25 C, 6% native gel; DNA folded in 25 mM Tris-HCl pH 7.5, 50 mM KCl. To be noted: protein: recombinant; (GST fusion); label: 5' FITC; intramolecular G4 with 3' ssDNA tail.

In data set [7] the target is T1, GST-WRNIP1. The data set is described as follows: fluorescence anisotropy; Hill n 1.1; Anisotropy: 10 nM DNA, 50 mM Tris-HCl pH 7.5, 90 mM KCl, 5 mM EDTA, with or without 1 mM ATP and 1.25 mM MgCl2, 25 C; EMSA: 50 nM DNA, 50 mM Tris-HCl pH 7.5, 150 mM KCl, 15 min 25 C, 6% native gel; DNA folded in 25 mM Tris-HCl pH 7.5, 50 mM KCl. To be noted: protein: recombinant; (GST fusion); label: 5' FITC on strand 1; 21 bp duplex at 3' end of strand 1; 5' ss G4 overhang 27 nt; strand 2 5' TTT overhang.

For the molecule ACTCCCACCCATCCCACCCACGCAGACGCCGACCGAGCTCCG (ssDNA) [C-rich control], the Kd with GST-WRNIP1 [1] came to 3500 ± 511 nM.

As to TGAGGGTGGGTAGGGTGGGTGCGTCTGCGGCTGGCTCGAGGC (structured_DNA) [MYC G4 ss (Myc2345)], the values for the Kd with GST-WRNIP1 [2], with GST-WRNIP1 [3] and in the data set with GST-WRNIP1 [4] were 183 ± 52 nM, 175 ± 43 nM and 184 ± 36 nM, respectively.

B1: MYC G4 partial duplex (structured_DNA)
DNA 1: TGAGGGTGGGTAGGGTGGGTGCGTCTGCGGCTGGCTCGAGGC
DNA 2: TTTGCCTCGAGCCAGCCGCAGACG
For B1, the Kd with GST-WRNIP1 [5] was 108 ± 45 nM. As for AAGGGTGGGTGTAAGTGTGGGTGGGTGCGTCTGCGGCTGGCTCGAGGC (structured_DNA) [CEB G4 ss (CEB25)], in the data set with GST-WRNIP1 [6], the Kd amounted to 65 ± 6 nM.

B2: CEB G4 partial duplex (structured_DNA)
DNA 1: AAGGGTGGGTGTAAGTGTGGGTGGGTGCGTCTGCGGCTGGCTCGAGGC
DNA 2: TTTGCCTCGAGCCAGCCGCAGACG
Consider B2, for which the Kd with GST-WRNIP1 [7] was 221 ± 44 nM.
